Reference: paper PMC11846896, “Phage parasites targeting phage homologous recombinases provide antiviral immunity” (Nature Communications, 2025)

Key:
[1] = biological target: Stl2 (SaPI2-encoded transcriptional repressor Stl), wild type, C-terminally histidine tagged (Staphylococcus aureus (SaPI2)); experiment: mass photometry; single proteins; diluted to 50 to 100 nM in 20 mM Tris pH 8.0, 0.5 mM EDTA, 200 mM NaCl, 2 mM DTT; self-association (dimer and large oligomers)
[2] = system: Stl2-ΔCTD (Staphylococcus aureus pathogenicity island SaPI2); experiment: EMSA; settings: EMSA: 20 mM Tris-HCl pH 7.0, 100 mM NaCl, 5% glycerol, 50 ng/µl BSA, 1 ng/µl salmon sperm DNA, 5 mM DTT, 2 nM FAM-DNA, room temperature 30 min; Stl2 + 5 mM …
Stl2-Sak4_52A complex = biological target: T1, Stl2-Sak4_52A complex (Staphylococcus phage 52A, UniProt Q4ZAS5); experiment: cryo-EM structure of the complex ([…] Å); assay type: binding; settings: 2 mM ATPγS, 20 mM Tris pH 7.6, 100 mM NaCl, 1 mM DTT, 37 °C 10 min, Stl2 1:1; site at Sak4_52A protomer interface (Lys41, Thr42, Tyr216 of one; Lys229, Arg231, His232 of the next)
T1 construct: both from E. coli BL21, mixed 1:1; with SaPI2 transcriptional repressor Stl (Staphylococcus aureus)

[3] = biological target: Sak80α, full-length, untagged, co-expressed with Stl2 from pETDuet-1 (phage 80α (Staphylococcus aureus phage)); experiment: cryo-EM structure; Stl2-Sak80α complex co-expressed from pETDuet-1 and co-purified, third elution peak of Superose 6, 1.5 mg/ml; D1 symmetry
[4] = biological target: Sak80αΔCTD (truncated Sak80α with its CTD removed) (phage 80α (Staphylococcus aureus phage)); experiment: cryo-EM structure; Sak80αΔCTD at 1.5 mg/ml in 20 mM Tris-HCl pH 7.6, 100 mM NaCl, 1 mM DTT; C18 symmetry

T1 sequence (A0FIL5 entry or part of it): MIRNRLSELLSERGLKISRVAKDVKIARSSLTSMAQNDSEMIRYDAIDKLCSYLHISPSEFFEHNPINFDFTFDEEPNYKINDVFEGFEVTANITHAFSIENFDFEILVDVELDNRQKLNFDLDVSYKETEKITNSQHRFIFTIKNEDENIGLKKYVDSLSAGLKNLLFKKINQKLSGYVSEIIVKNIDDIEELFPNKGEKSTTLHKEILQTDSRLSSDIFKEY
T1 sequence (Q4ZAS5 entry or part of it): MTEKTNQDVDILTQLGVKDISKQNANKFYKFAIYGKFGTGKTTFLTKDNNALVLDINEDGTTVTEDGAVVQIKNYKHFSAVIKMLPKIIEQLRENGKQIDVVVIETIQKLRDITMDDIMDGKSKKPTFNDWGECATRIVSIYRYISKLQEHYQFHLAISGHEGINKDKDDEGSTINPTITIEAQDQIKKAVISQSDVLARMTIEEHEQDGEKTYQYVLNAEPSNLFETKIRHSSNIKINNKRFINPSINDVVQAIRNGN

“Stl2 (SaPI2-encoded transcriptional repressor Stl), wild type, C-terminally histidine tagged (natural protein)” gave a stoichiometry N [1] of 2.

SaPI2 IGR (stl-str intergenic region) showed a binding signal (fold reduction in affinity vs wild type) [2] of 30.

For `Nc1ncnc2c1ncn2[C@@H]1O[C@H](COP(=O)(O)OP(=O)(O)OP(O)(O)=S)[C@@H](O)[C@H]1O` [ATPγS], the “cryo-EM structure of the complex (3.35 Å)” value (Stl2-Sak4_52A complex) was “The nucleotide ATPγS is boxed and zoomed in on the left-hand side”.

“Sak80α, full-length, untagged, co-expressed with Stl2 from pETDuet-1 (natural protein)” gave a stoichiometry N [3] of 17.

With “Sak80αΔCTD (truncated Sak80α with its CTD removed) (domain or fragment)” the stoichiometry N [4] was 18.
